Results on 1 substance are retold here after PMC4770912.

Assay [1] has as its target SIRPα variant (10), three domain construct with rat CD4d3+4 tag (human). The assay is described as follows: SPR; as a1, CD47 at 22 uM passed over again after OX130 MAb had been passed over the immobilised SIRP proteins. On the technique in general: SPR reads the build-up and loss of mass on a sensor chip optically.
Assay [2] shares this target. The assay is described as follows: SPR; BIAcore 3000; SIRP proteins captured through their rat CD4d3+4 tag on the rat CD4 MAb OX68 immobilised on a CM5 chip (about 1000 RU); human CD47 at 22 uM passed over; RU of the control rat CD4 domains 3 and 4 subtracted.

Sequence of SIRPα variant (10), three domain construct with rat CD4d3+4 tag (human) (main, as listed by the source mutant): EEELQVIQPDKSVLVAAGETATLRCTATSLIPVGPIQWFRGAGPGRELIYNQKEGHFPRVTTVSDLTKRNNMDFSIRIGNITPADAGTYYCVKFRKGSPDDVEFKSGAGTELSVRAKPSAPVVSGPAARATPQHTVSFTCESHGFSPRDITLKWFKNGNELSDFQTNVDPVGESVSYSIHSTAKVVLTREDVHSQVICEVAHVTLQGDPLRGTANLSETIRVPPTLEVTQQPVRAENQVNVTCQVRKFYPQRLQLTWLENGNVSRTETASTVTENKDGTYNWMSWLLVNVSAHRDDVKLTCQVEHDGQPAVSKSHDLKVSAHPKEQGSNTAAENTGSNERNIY

Regarding “Human CD47 (from UniProt Q08722 19-141) (ligand)”, the response units (RU) after OX130 injection in assay [1] was determined as 247 RU. In assay [2], this substance showed a response units (RU) of 280 RU.
